Source: the supplement of paper PMC12042874
± gives the uncertainty stated by the source.

experiment: amyloid nucleation score (Sup35N fusion, yeast selection) (log enrichment); library NNK1; higher = more nucleation; inactive = no reads after selection
Outline: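 The nucleation score is the log enrichment of output over input reads, calculated with DiMSum and centred on the mode score of non-aggregating sequences. Sequences with under 100 input reads were excluded. Reads came from Illumina sequencing of plasmid inserts from psi-negative yeast expressing Sup35N fused to peptides of 20 random codons, induced 24 hours with 100 μM copper sulfate and grown 7 days at 30°C without adenine and uracil.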

Substance | amyloid nucleation score
GTDYVEGCCSLNFRCCCVNG | 5.117 ± 0.05
GTGLSENRLSKYCWALLWSY | inactive
GTIVEWAT | inactive
GTLPLKDKGPYRDL | -1.08 ± 1.4
GTLRHDVMRQLTFLCYFINL | 0.047 ± 0.72
GTMKWALYSDYLSSTFTIYH | 0.137 ± 0.26
GTNYYSSGML | 0.114 ± 0.35
GTQMVLFDY | 1.12 ± 0.58
GTSRPVDWGLRRLS | 1.37 ± 0.62
GTTDIFFLLILFFQVVN | 1.14 ± 0.73
GVDKASYPHSFGEQWLSLSL | 0.844 ± 0.97
GVKLYDFVNRCCVMNLLAVK | 0.428 ± 0.47
GVMPNCKKNLHEPALERFNT | -0.413 ± 0.61
GVNFFGCHCVHN | -0.113 ± 0.41
GVQAVNVEVVNEVCLVKEAT | -0.153 ± 0.46
GVRGVSKMECKYQKFIGLTG | 1.78 ± 0.61
GVRVCSMPFAALLAFLLYFS | -1.09 ± 0.76
GVSMGKESMIV | -0.671 ± 0.72
GVSMNSFLICDFDIWQIKTR | -0.162 ± 0.22
GVTVKGASS | -0.734 ± 0.66
GVTWLSEISV | 0.885 ± 0.73
GVWYCYLGVN | -0.431 ± 1.4

Substance | amyloid nucleation score
GWHTQVMVVTSVSMLGVWT | 0.487 ± 0.24
GWLLYDSPSRFTYC | -0.531 ± 0.37
GWSNNCAFNLQFGISKKN | 1.54 ± 0.47
GWTLPNRRLWHFFMTIT | 0.654 ± 0.45
GYFIVALRFSSLVEVNATSC | 0.658 ± 0.77
GYGLSAL | 1.08 ± 0.73
GYLIYSWVLVNWNSGLEINK | 2.62 ± 0.17
GYMCIVLIRG | 1.12 ± 0.71
GYMFPVFSMIGFLNTNVWSK | 3.27 ± 0.15
GYRGLYY | 1.38 ± 0.6
GYRTLLS | 0.372 ± 1.4
GYVDGSRGRGAPNGAMCRCF | 0.205 ± 0.76
HARIS | -0.313 ± 0.79
HCAYRFASENEMKGG | 0.321 ± 0.65
HCLAGNLDLAMVRVRSPTCL | 0.032 ± 0.59
HCSFSWGYRWLGWTTKSGNM | 1.31 ± 0.4
HCVLRFCNPG | inactive
HCVRI | 1.4 ± 0.6
HDFPIR | inactive
HDSLMRSGSFNTSVTVEY | 0.843 ± 0.55
HEGGQWLRKLTGPLGLRFMR | 0.216 ± 0.48
HERDIQSSIGDWNKLSKPCN | -0.418 ± 0.31

Substance | amyloid nucleation score
HFCHFVGLNPVQKRRVVPWG | inactive
HFFVVNQSYPNHFHLLGI | 5.05 ± 0.094
HFGKRHSYRYLDDTCAQNLY | -0.811 ± 0.63
HFMAI | -1.55 ± 0.8
HFVCYNCWGYICTVCLTSRE | 8.228 ± 0.065
HFVRFRRAMSRHGRVAST | -0.979 ± 0.75
HGCKYAKGASDLYDIMCFCW | 0.602 ± 0.38
HGCSSVILVGMRAEEIFLYY | 2.71 ± 0.14
HGTVNLIYVNEI | 0.133 ± 0.67
HHGSCFEGLFCSETFCLAIM | 6.495 ± 0.055
HHSRIFICDLRWSSTVRHCK | 1.39 ± 0.16
HIFVMIYVLMEDGSKKLTSM | 0.99 ± 0.85
HIGGTFVWLEFPCKWGLTED | 4.46 ± 0.069
HITDYRVRT | 1.27 ± 0.41
HKNEYSGFKRSKLLYRARMR | 0.964 ± 0.68
HKTFGCCLDLWHIMPHFIIL | -0.396 ± 0.37
HLAINNADTALGSYKGQVSV | 2.36 ± 0.11
HLGNSSNQIILHQCI | 4.67 ± 0.059
HLIKRYGYSCVRWVC | 0.003 ± 0.53
HLILGLL | -0.54 ± 0.47
HLMMTLFFVPVLMCITFTDG | -0.032 ± 0.3
HLNNSLLELVNCRKYSIKGC | 0.088 ± 0.35

Substance | amyloid nucleation score
HLPGFNIVSYVQSESIMF | -0.08 ± 0.2
HLRRYMDRYRRGQYGFSYFW | 1.09 ± 0.64
HLRWQMDWCSHNNGMDVMRG | 3.71 ± 0.12
HLVDFMDE | 0.105 ± 0.3
HLVLFYVSLITFARYSFMGV | -0.058 ± 0.3
HLWRVRLV | 0.01 ± 0.61
HLYMDSSILRLVEYTWCFKV | 0.085 ± 0.96
HMLWSFLLITWYGMICRKGG | -0.15 ± 0.39
HMRDLEDPQWSDY | -0.711 ± 0.32
HNFEFTRLAHLDSSTL | 0.248 ± 0.47
HNFLSYFQNRNDYCASN | -0.503 ± 0.6
HNHSTYFHYRFGVSLVLTSR | 2.29 ± 0.38
HPLLMYWRRTFVEHRLYLT | 0.031 ± 1.2
HPLWGPYR | 0.518 ± 0.59
HPSTRCAVANDNIWPLSGPR | 0.628 ± 0.75
HPSVGYSSLVV | 0.841 ± 0.62
HPYSFWWSWAVKPLPGLRRI | 0.485 ± 0.73
HQKACCSRLMNCGYNSAKWR | -0.612 ± 0.89
HRCRREYSQSSGSWDESIEN | 1.05 ± 0.14
HRRLRMRT | -0.469 ± 0.79
HRSRITLANVS | -0.666 ± 0.32
